Test [1] deals with human Protein O-glucosyltransferase 1 (POGLUT1), residues 29-385 (human) (UniProt Q8NBL1).
In test [2] the target is Drosophila Rumi, residues 39-406 (Drosophila) (UniProt Q8T045).
UniProt Q8T045, sequence (Q8T045 39-406): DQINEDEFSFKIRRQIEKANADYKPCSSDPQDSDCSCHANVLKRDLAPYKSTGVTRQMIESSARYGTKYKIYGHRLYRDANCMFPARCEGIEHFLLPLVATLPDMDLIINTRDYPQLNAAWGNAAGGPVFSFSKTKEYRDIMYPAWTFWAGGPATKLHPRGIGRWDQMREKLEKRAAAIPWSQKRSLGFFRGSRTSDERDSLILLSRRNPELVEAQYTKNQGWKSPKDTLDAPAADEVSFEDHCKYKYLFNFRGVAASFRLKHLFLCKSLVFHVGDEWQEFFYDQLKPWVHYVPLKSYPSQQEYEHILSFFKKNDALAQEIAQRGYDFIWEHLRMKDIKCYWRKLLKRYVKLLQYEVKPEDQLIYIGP

UniProt Q8NBL1, sequence (Q8NBL1 29-385): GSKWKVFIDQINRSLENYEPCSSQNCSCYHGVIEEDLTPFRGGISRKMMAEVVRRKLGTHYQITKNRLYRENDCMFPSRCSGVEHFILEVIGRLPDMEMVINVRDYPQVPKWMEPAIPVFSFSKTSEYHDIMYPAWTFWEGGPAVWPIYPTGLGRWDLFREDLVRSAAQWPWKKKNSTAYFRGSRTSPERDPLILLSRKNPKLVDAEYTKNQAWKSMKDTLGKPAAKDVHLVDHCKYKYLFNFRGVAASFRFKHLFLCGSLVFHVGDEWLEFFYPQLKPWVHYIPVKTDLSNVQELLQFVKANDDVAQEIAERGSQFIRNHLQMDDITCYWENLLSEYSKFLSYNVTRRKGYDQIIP

With “human Notch1 EGF-like domain 12 with a 4-residue C2C3 loop, MBP fusion (from UniProt P46531 452-488) (domain or fragment)”, the K M of the EGF-like domain (MBP fusion) for glucosylation, 2.5 mM UDP-glucose, coupled spectrophotometric assay, 37 °C in test [1] was 155 µM; in test [2] it was 160 µM.

On to “human Notch1 EGF-like domain 12 with a 6-residue C2C3 loop, MBP fusion (from UniProt P46531 452-488) (domain or fragment)”, for which the K M of the EGF-like domain (MBP fusion) for glucosylation, 2.5 mM UDP-glucose, coupled spectrophotometric assay, 37 °C in test [1] and in test [2] was 1000 µM throughout.

In the case of “human Notch1 EGF-like domain 12 with a 7-residue C2C3 loop, MBP fusion (from UniProt P46531 452-488) (domain or fragment)”, the K M of the EGF-like domain (MBP fusion) for glucosylation, 2.5 mM UDP-glucose, coupled spectrophotometric assay, 37 °C in test [1] and in test [2] was 1000 µM throughout.

Values taken from PMC5543122, “Structural basis of Notch O-glucosylation and O–xylosylation by mammalian protein–O-glucosyltransferase 1 (POGLUT1)” (Nature Communications, 2017).
